In PMC11821526:

Legend:
[1] = target: pep3 with terminal Phe amide (…-CONH2); assay: fluorescence polarisation; FBXO31–SKP1 complex (0–5 µM) titrated against fluorescein-labelled peptides (2–10 nM); 25 mM HEPES, 150 mM NaCl, pH 7.5, room temperature, 30 min; one-site fit; constants of the highest affinity probes only approximate
[2] = target: pep3 with terminal Asp amide (…-CONH2); assay: as above
[3] = target: pep3 with terminal Asn amide (…-CONH2); assay: as above
[4] = target: pep3 with terminal Gln amide (…-CONH2); assay: as above
pep3 …[X]-CONH2, X = Thr = assay: fluorescence polarisation; FBXO31–SKP1 complex (0–5 µM) titrated to fluorescein-labelled peptide (2–10 nM); 25 mM HEPES, 150 mM NaCl, pH 7.5; room temperature, 30 min; one-site fit, n = 3 parallel experiments
pep3 …[X]-CONH2, X = Ala = assay: as above
pep3 …[X]-CONH2, X = His = assay: as above
pep3 …[X]-CONH2, X = Val = assay: as above
pep3 …[X]-CONH2, X = Arg = assay: as above
pep3 …[X]-CONH2, X = Met = assay: as above
pep3 …[X]-CONH2, X = Ser = assay: as above
pep3 …[X]-CONH2, X = Lys = assay: as above
pep3 …[X]-CONH2, X = Trp = assay: as above
pep3 …[X]-CONH2, X = Ile = assay: as above
pep3 …[X]-CONH2, X = Cys = assay: as above
pep3 …[X]-CONH2, X = Glu = assay: as above
pep3 …[X]-CONH2, X = Tyr = assay: as above
pep3 …[X]-CONH2, X = Leu = assay: as above
pep3 …[X]-CONH2, X = Pro = assay: as above
pep3 …[X]-CONH2, X = Gly = assay: as above

Substance | Kd [1] | Kd [2] | Kd [3] | Kd [4] | Kd (pep3 …[X]-CONH2, X = Thr) | Kd (pep3 …[X]-CONH2, X = Ala) | Kd (pep3 …[X]-CONH2, X = His) | Kd (pep3 …[X]-CONH2, X = Val) | Kd (pep3 …[X]-CONH2, X = Arg) | Kd (pep3 …[X]-CONH2, X = Met) | Kd (pep3 …[X]-CONH2, X = Ser) | Kd (pep3 …[X]-CONH2, X = Lys) | Kd (pep3 …[X]-CONH2, X = Trp) | Kd (pep3 …[X]-CONH2, X = Ile) | Kd (pep3 …[X]-CONH2, X = Cys) | Kd (pep3 …[X]-CONH2, X = Glu) | Kd (pep3 …[X]-CONH2, X = Tyr) | Kd (pep3 …[X]-CONH2, X = Leu) | Kd (pep3 …[X]-CONH2, X = Pro) | Kd (pep3 …[X]-CONH2, X = Gly)
recombinant FBXO31–SKP1 complex (wild type) (from UniProt Q5XUX0 66-539; P63208 1-163) | 6 nM | 304 nM | 24 nM | 55 nM | – | – | – | – | – | – | – | – | – | – | – | – | – | – | – | –
FBXO31–SKP1 complex (StrepII-FBXO31.1(∆1–65) with SKP1(A2P,∆38–43,∆71–82)) (from UniProt Q5XUX0 66-539; P63208 1-163) | – | – | – | – | 42 nM | 54.4 nM | 13.2 nM | 43.7 nM | 71 nM | 21 nM | 49.6 nM | 93.8 nM | 38.2 nM | 32.1 nM | 19.9 nM | 103 nM | 25.9 nM | 41.4 nM | 58.2 nM | 137 nM
